Laboratory results: the supplement of paper PMC9170038

Tested on: MS2 coat protein
Assay: apparent KD of MS2 coat protein; designed switch direction (-1 OFF switch, 1 ON switch): -1; higher = weaker reporter binding
How it was run: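 For each design, the apparent KD is the median over clusters of curves fitted to normalised cluster fluorescence. Clusters held RNA switches with common flanks, transcribed on Illumina chips by stalled E. coli RNA polymerase. These were titrated with SNAP-549-labelled MS2 coat protein, doubling from 0.7 or 1.5 nM to 3 µM, without input, with 200 uM small-molecule ligand, or with an oligonucleotide input.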

[1] = input ligand: microRNA oligo, concentration not stated
[2] = Eterna round: R95, input ligand: microRNA oligo, concentration not stated
[3] = Eterna round: R95, input ligand: FMN 200 uM
[4] = Eterna round: R95, input ligand: none

Sequence | apparent KD of MS2 coat protein (input ligand: FMN 200 uM) | apparent KD of MS2 coat protein [1] | apparent KD of MS2 coat protein (input ligand: none) | apparent KD of MS2 coat protein [2] | apparent KD of MS2 coat protein [3] | apparent KD of MS2 coat protein [4]
ACAUGAGGAUCACCCAUGUCAACGAAAAGGCUCAUGUAGAGUGAGGAUAUGUGAGACGAACGAGAACAGAAGGCACAAGACAGG [Deportation 3 - Jieux - Exclusion NG 3] (Eterna round: R96, puzzle: Exclusion NG 3) | 31.8 nM | 16.6 nM | 38.4 nM |  |  | 
ACAAGCUUUUUCAUAUCUUACAUGAGGAUCACCCAUGUUUUUGCAAUUAUGUUUGGGCUCUUUUGAGCUCGUCUUAU [JR_STOV1_Sub048] (Eterna round: R97, puzzle: Sensor, turn-off variant 1) | 13.5 nM |  | 14.4 nM |  |  | 
UUUUACGCAGGAUAUACAUUUUUUUUAUUAUCCUCAUUAUUACAUGAGGAUCACCCAUGUAGAAGGGCGAUUUU [My Design] (puzzle: Exclusion 2) |  |  |  | 38.8 nM |  | 
GUACUACGAGGAUAUAUAUAAUGGGAAGCCCAGGCCAUUGCACAUGAGGAUCACCCAUGUAGAAGGCGUGGUCA [Eternabot (L2) Solution 28] (Eterna round: R97, puzzle: Exclusion 2) | 40.3 nM |  | 16.7 nM |  |  | 
ACCAUUUACUAAUCCUCUAUACAUGAGGAUCACCCAUGUUCUGAGGAUAUCAUCGUUCGCCGCGUUGAGAAGGCAGAGCAUUCG [Ariestion] (Eterna round: R96, puzzle: Exclusion NG 3) | 157 nM | 22.4 nM | 24.8 nM |  |  | 
AAGAAACAUGAGGAUCACCCAUGUGAGGAUAUGAGUAAGAAAAGAAAAGAAAGAAGAGUCAGAAGGCACAAAGG [salish99-ex1_r3_060] (puzzle: Exclusion 1) |  |  |  | 35.4 nM | 49.5 nM | 41.5 nM
AUGCUCCGUGUAGGAUAUCGCCGUACUAUUCGGCGAGAAGGACAUGAGGAUCACCCAUGUAUGUUAUUAUCACGUGUGGCGCGC [Design 48] (Eterna round: R96, puzzle: Exclusion NG 1) | 57 nM | 14.5 nM | 18.9 nM |  |  | 
GAGAAAGCAAGCAAGUGAAACAUGAGGAUCACCCAUGUCCUCAUUUGCUCGUCUUAUAAAAGCUAUCGAAAGAUAGC [Mat - Sensor v3 - turn-off var 1 - Eli Mod - D48] (puzzle: Sensor v3, turn-off variant 1) |  |  |  | 139 nM | 13.2 nM | 10.3 nM
GUGGUACAUGAGGAUCACCCAUGUUAGGAUAUCGCGUGAGGUUUUACUUCCGCACGCGCGAGAAGGGACGUCUU (puzzle: Exclusion 1) |  |  |  | 28.9 nM |  | 
AACGCUAAAGGAUAUACAUGAGGAUCACCCAUGUUGAGGAAGGUUAGAUGAGGAGUAAGUAGAAGGUUAGACGA [JR_Exclu3_Sub090] (puzzle: Exclusion 3) |  |  |  | 23.7 nM |  | 
UAGAAAGAAGUCAGGAUAUCAUGAGUUGCAGCUCAUGAGAAGGGACAUGAGGAUCACCCAUGUAACACGCCUCU [Eternabot (L2) Solution 62] (Eterna round: R97, puzzle: Brourd's mod of Exclusion 4) | 28.9 nM |  | 24.8 nM |  |  | 
CCGGAAAUACAGGAUAUCGUAUCGGAUACGAUACGAGAAGGGUAUACAUGAGGAUCACCCAUGUGUCCUACCGG [Fiskers Ex 6 - 51] (puzzle: Exclusion 6) |  |  |  | 23.6 nM |  | 
UGAGCUACAGGAUAUAUGUGGCGACCGUGAGGUCGAAGGUUACAUGAGGAUCACCCAUGUAGAAGGGUAGUUCU [Mat - Exclusion 2 - JL Mod - D20] (Eterna round: R97, puzzle: Exclusion 2) | 311 nM |  | 284 nM |  |  | 
AAAAUACAAGCAAGAUCCUACAUGAGGAUCACCCAUGUGCUCGUCUUAUAAAGUACUAUCACGAAAGUGAUAGUACA [Mat - Sensor v3 - turn-off var 1 - Eli Mod - D59] (puzzle: Sensor v3, turn-off variant 1) |  |  |  | 43.1 nM | 256 nM | 415 nM
AUUUUGUCAGGAUAUGAGUAGUAGGACGAAAGUGUUAUUAUUUAGAAGGGACAUGAGGAUCACCCAUGUUCCUC [Bring Us a Shrubbery-03] (Eterna round: R96, puzzle: Exclusion 4) | 13.9 nM | 10.7 nM | 13.7 nM |  |  | 
GUGAGCAGACGGAGAUCCUACAUGAGGAUCACCCAUGUCUCACUAGCUUUUUGCUCGUCUUAUCCUCCUCUGUUCAC [Elimod 24 - Jieux - Sensor, turn-off variant 1] (Eterna round: R97, puzzle: Sensor, turn-off variant 1) | 21.8 nM |  | 21.6 nM |  |  | 
AGGUGAUAUCUGUCGAUGGACAUGAGGAUCACCCAUGUGAGCUUUUUGCUCGUCUUAUAAACCGGUGACAGACCUUC [Sensor v3, turn-off variant 1 (MOD of Zalaso)] (puzzle: Sensor v3, turn-off variant 1) |  |  |  | 20.6 nM | 49.8 nM | 69.4 nM

Sequence | apparent KD of MS2 coat protein (input ligand: FMN 200 uM) | apparent KD of MS2 coat protein [1] | apparent KD of MS2 coat protein (input ligand: none) | apparent KD of MS2 coat protein [2] | apparent KD of MS2 coat protein [3] | apparent KD of MS2 coat protein [4]
GCCGGAGCAGGAUAUUCAAUAUCACACAUGAGGAUCACCCAUGUCCAGCGAAAGCUGGAGGGAGAAGGGCUCUGGC [Fiskers Ex 5 - 15] (puzzle: Exclusion 5) |  |  |  | 56.1 nM |  | 
CCGCAUAAGCAGGAUAUCGUAUCGGAAACGAUACGAGAAGGGUUUACAUGAGGAUCACCCAUGUUCCUUAGCGG [Mat - Exclusion 6 - Eli Mod - D100] (puzzle: Exclusion 6) |  |  |  | 31.5 nM | 49.9 nM | 32.6 nM
UGUACUAACACGUAAGUGUUAGUACUAUAAGCUUGUGUUACAUGAGGAUCACCCAUGUCCUCAUAAGCUCGUCUUAA [Mat - Sensor v3 - Turn-off var 2 - D72] (puzzle: Sensor v3, turn-off variant 2) |  |  |  | 182 nM | 39.7 nM | 37.2 nM
CAAGCUUUUCCAUUUCUAUACAUGAGGAUCACCCAUGUCCCGAGUUGGGUGAGCACUCUGGUCGUCGUUUCUACCAA [Envele] (Eterna round: R96, puzzle: Sensor v2, turn-off variant) | 432 nM | 181 nM | 278 nM |  |  | 
GCGGACAAGAUAUAAAUAUCAGAGACAUGAGGAUCACCCAUGUAGGAUAUCGAUUCGAAACGAAUCGAGAAGGGCAUAGUCCGC [JL denovo 1] (Eterna round: R96, puzzle: Exclusion NG 3) | 18.8 nM | 13.8 nM | 18.7 nM |  |  | 
GUUCCACGAGGAUAUGAGGGCAACUACAUGAGGAUCACCCAUGUGAGCGAUCCUCAGAAGUCAGAAGGCGUGGAGA [Eternabot (L2) Solution 77] (Eterna round: R97, puzzle: Exclusion 5) | 63.7 nM |  | 70.4 nM |  |  | 
CAGGUGUGAGGAUAUGUGAUUAUGAUAGACCGAGUCUACCCACAGAAGGCACAUGAGGAUCACCCAUGUGAGUA [Eternabot (L1) Solution 75] (Eterna round: R97, puzzle: Exclusion 4) | 122 nM |  | 46.6 nM |  |  | 
ACAUGUAUUGCAGGAUAUGGGACACAUGAGGAUCACCCAUGUGACUACAUGUCAUACCACGGGUCUCAGAAGGGUAUGUACAUG [Ex NG2 #40] (Eterna round: R96, puzzle: Exclusion NG 2) | 28.9 nM | 15.1 nM | 23 nM |  |  | 
AAGGAUCGAGGAUAUACAUAGAUACAGAUUCAUGUAGAACUACAUGAGGAUCACCCAUGUAGAAGGCGAUCCUA [Mat - Same state - Mayanna Mod - D120] (Eterna round: R96, puzzle: Exclusion 2) | 367 nM | 31.1 nM | 41.3 nM |  |  | 
AAAAAGGCAGGAUAUACGAGUCAAAGAAAAGACAAAAAGGGACAUGAGGAUCACCCAUGUAGAAGGGCCAAAAA [Fiskers exclusion D2 62% 4] (Eterna round: R96, puzzle: Exclusion 2) |  | 31.9 nM |  |  |  | 
AGCAGACGAGGAUAUAAAUUUGAUAACAUGAGGAUCACCCAUGUGAUCGAUAGAUCAAAUUUAGAAGGUGUCUGCU [E5/7-B1] (Eterna round: R97, puzzle: Exclusion 5) | 512 nM |  | 490 nM |  |  | 
AUUGAUAGCACAGGAUAUUGAGAUUUGAAUUGACAAGAAGGGUGUACAUGAGGAUCACCCAUGUAAUGGGAGAGUGGUUGAUUA [JR_ExcNG1_Sub002] (Eterna round: R96, puzzle: Exclusion NG 1) | 365 nM | 324 nM | 582 nM |  |  | 
GAUUAUGCGAGCUUUAGGGACAUGAGGAUCACCCAUGUUCGUCUUAUUGAUCUAGGUGCACUAACAUACCUAAAUCU [JMF 34] (puzzle: Sensor v3, turn-off variant 1) |  |  |  | 41.2 nM | 24 nM | 27.7 nM
GCCGUAAGUGUGAGGAUAUACCUAUGGAUACAUAGGUAGAAGGCACAUGAGGAUCACCCAUGUUCUCAAUCGGC [Eli BMX r4m5] (Eterna round: R97, puzzle: Brourd's mod of Exclusion 4) | 667 nM |  | 125 nM |  |  | 
GUCAGCUCGUGAGGAUAUGAACAUGAGGAUCACCCAUGUAAGAUCAAGCUGCUUCGGCAGCAAGUUCAGAAGGUACGAGCUGAU [ENG2/10-C2] (Eterna round: R96, puzzle: Exclusion NG 2) | 243 nM | 93.3 nM | 122 nM |  |  | 
AUACUUGCGAAGGAUAUGUAUCAAAGGAACGAAACAGAAGGUUGAACAUGAGGAUCACCCAUGUGUUCCUCGGA [Eternabot (Original) Solution 40] (Eterna round: R97, puzzle: Exclusion 6) | 272 nM |  | 235 nM |  |  | 
